B1: Far upstream element-binding protein 1, residues 98 to 169; numbered along this chain, Q96AE4 (parent)
chain: RSVMTEEYKVPDGMVGFIIGRGGEQISRIQQESGCKIQIAPDSGGLPERSCMLTGTPESVQSAKRLLDQIVE

Variants of: B1
Test: abundance fitness (aPCA) (normalised: wild type 0, dead -1); higher = more abundant; growth selection in yeast, the domain comes from the species named
Settings: Homo sapiens

Abundance fitness of substitutions, site by site:
A63: W -1.31 | T -0.303 | K -1.04 | N -0.91 | S -0.261 | I -0.328 | V -0.246 | C 0.024 | D -0.633 | F -0.941 | E -0.815 | H -1.09 | P -0.805 | L -0.41 | Y -1.05 | G -0.069
V60: S -0.57 | L -0.009 | T -0.13 | P -0.871 | I 0.025 | E -0.855 | R -0.006 | Q -0.174 | H -0.525 | F -0.558 | Y -0.781 | W -0.999 | D -0.768 | A -0.307 | N -0.109 | K -0.223
R49: V -0.116 | L -0.18 | G -0.088 | F -0.248 | A -0.088 | I -0.133 | N -0.085 | P -0.144 | K -0.079 | D -0.172 | C -0.183 | T -0.068 | S -0.086 | Q -0.083 | E -0.188 | W -0.318 | Y -0.072 | H -0.106
M52: S 0.001 | V 0 | L 0 | W -0.011 | N -0.072 | P -0.625 | D -0.139 | Y -0.012 | I -0.018 | R -0.017 | K -0.045 | H -0.025 | E -0.053 | T -0.033 | G -0.137 | C -0.004 | Q -0.032 | A -0.056
S50: E -0.06 | M -0.018 | F -0.177 | W -0.174 | G -0.054 | Q -0.025 | C -0.015 | R -0.011 | T -0.015 | K -0.019 | Y -0.117 | H -0.105 | D -0.023 | A -0.048 | I 0.07 | N 0.038 | P -0.043 | V -0.017 | L -0.002
P47: M -0.088 | I -0.049 | G -0.019 | T -0.007 | S -0.014 | E -0.025 | R -0.054 | F -0.084 | N -0.012 | D -0.007 | A -0.012 | L -0.02 | C -0.061 | V -0.038 | Q 0.019 | K -0.004 | H -0.052
P57: N 0.001 | I -0.088 | Y -0.049 | S -0.027 | L -0.048 | K -0.044 | H -0.12 | A -0.017 | V -0.086 | F 0.057 | E -0.008 | R -0.021 | C -0.111 | G -0.025 | W -0.104 | Q 0.033 | D -0.097
G55: L -1.51 | I -1.12 | F -1.41 | N -1.1 | P -1.13 | C -1.24 | A -0.534 | E -1.12 | V -1.31 | H -0.721 | T -1.32 | D -0.936 | K -1.05 | S -0.44
C51: M 0.017 | W -0.108 | R -0.984 | Y -0.116 | L -0.019 | F 0.049 | S -0.284 | A -0.06 | E -1 | G -0.417 | K -1.12 | P -0.597 | Q -0.818 | V 0.006 | H -0.718 | D -0.956 | T -0.093
L46: T -0.006 | R -0.006 | W -0.132 | Y -0.093
E58: R -0.08 | T -0.038 | H -0.052 | S -0.041 | Q 0.001 | I -0.069 | A -0.051 | G -0.05 | W -0.125 | N -0.107 | V -0.075 | D 0.03 | L -0.072 | K -0.035 | P -0.065 | Y -0.05 | C -0.17
Q61: T -0.002 | P -0.463 | F -0.031 | V -0.035 | A -0.003 | S -0.009 | M -0.007 | I -0.029 | C -0.003 | H -0.051 | N -0.021 | Y -0.049 | W -0.058 | R -0.002 | D 0.003 | G 0.001 | L -0.003 | E 0.052
T54: C -0.085 | I -0.054 | S -0.027 | W -0.185 | L -0.087 | H -0.056 | E -0.028 | G -0.282 | A -0.081 | M 0 | F -0.105 | P -1.23 | Q -0.067 | K 0.01 | Y -0.046 | D -0.191 | V -0.05 | N -0.069
L53: P -1.03 | A -0.719 | Q -1.1 | H -0.99 | F -0.349 | V -0.132 | R -1.05 | D -1 | I 0.048 | T -0.923 | S -0.899 | Y -1.67 | G -1.1 | N -1.05 | K -0.835 | M -0.095 | W -1.03
L66: A -0.076 | F -0.087 | I -0.045 | H -0.05 | D -0.127 | E -0.017 | C 0
R65: V -0.002 | W -0.082 | T -0.019 | G -0.027 | I -0.051 | K -0.006 | Y -0.053 | E -0.015 | S -0.034 | Q -0.02 | N -0.008 | P -0.464 | H -0.025 | D -0.043 | C -0.029 | F 0.017 | L -0.024
K64: I -0.097 | F -0.254 | V -0.09 | Q -0.104 | E -0.15 | P -0.781 | T -0.065 | A -0.078 | G -0.179 | H -0.136 | S -0.126 | W -0.252 | D -0.634 | L -0.231 | N -0.274 | R -0.015 | C -0.137
S62: T -0.005 | C 0.025 | K 0.005 | W -0.059 | Q -0.019 | R -0.017 | V 0.012 | G -0.01 | F -0.071 | E -0.004 | N -0.005 | H -0.01 | A -0.03 | Y -0.066 | P -0.727 | I -0.082
T56: L -0.062 | Q -0.042 | N -0.03 | Y -0.066 | E -0.036 | S -0.006 | W -0.154 | D -0.067 | I -0.079 | K -0.027 | C -0.026 | A -0.046 | R -0.058 | V -0.04 | F -0.087 | G -0.091
E48: I -0.057 | D -0.059 | M -0.092 | A -0.041 | P -0.088 | G -0.045 | K -0.084 | L 0.001 | N -0.019 | W 0.004 | F -0.015 | H -0.114 | S -0.057 | Y 0.02 | V -0.035 | Q -0.085 | T -0.028 | C -0.119
S59: Q -0.017 | D -0.053 | T -0.058 | I -0.252 | P -0.555 | E 0.012 | H -0.063 | V -0.116 | L -0.401 | W -0.754 | M -0.089 | K -0.046 | C -0.071 | G -0.046 | R -0.064 | F -0.428 | Y -0.376
